Source: patent publication US7423021B2, “Peptidic thrombin inhibitors” (NSCI Novel Science International GmbH, priority 2003, dated 2008)
Square brackets hold non-standard residues; d marks the D form. Cha = N[C@@H](CC1CCCCC1)C(=O)O; Cit = NC(=O)NCCC[C@H](N)C(=O)O

How the values were obtained:
[1] = molecular target: thrombin; conditions: literature values; cited from earlier work
[2] = molecular target: thrombin (Homo sapiens, UniProt P00734); experiment: in-vitro inhibition of the amidase activity of thrombin (fluorogenic substrate Tos-Gly-Pro-Arg-AMC); type: biochemical; design: 10 μl of human thrombin solution; conditions: peptide concentration of 1 μM
Procedure: The values of the inhibiting constants Ki were obtained from assays in which thrombin hydrolyzes the fluorogenic substrate Tos-Gly-Pro-Arg-(7-amino-4-methylcumarin). The assays were carried out in […] of assay buffer (0.05 M tris, 0.1 M NaCl, 0.1% PEG 8000, pH 7.6) with 10 μl of human thrombin solution (10^−5 U/μl in the assay buffer) and 140 μl of a solution of the fluorogenic substrate in an assay buffer at a concentration of 30 μM. Solutions of the test compound (10 μl) were added at various concentrations. The rates of the hydrolysis of the substrate were measured by monitoring the reactions at […] of the release of 7-amino-4-methylcumarin using AMC. The reaction reached an equilibrium state within three minutes, after thrombin, the substrate, and an inhibitor were mixed. The kinetic data of the competing inhibition (Km, Vmax, and Ki) were analyzed by means of the representation according to Hanes (A/V against A at various values of A, where A is the substrate concentration and V the reaction rate).

## H-D-Phe-Pro-Arg-H
[1]
  Ki: 70 nM

## N-acetyl-L-Tyr-D-Pro-L-Cha-D-Pro-D-Tyr-L-Arg amide (Ac-Y[dP][Cha][dP][dY]R-NH2; SMILES CC(=O)N[C@@H](Cc1ccc(O)cc1)C(=O)N1CCC[C@@H]1C(=O)N[C@@H](CC1CCCCC1)C(=O)N1CCC[C@@H]1C(=O)N[C@H](Cc1ccc(O)cc1)C(=O)N[C@@H](CCCNC(=N)N)C(N)=O) [Example 15]
[2]
  inhibition of the amidase activity of the thrombin: 44%

## N-acetyl-L-Tyr-L-Cit-L-Cha-D-Pro-D-Tyr-L-Arg amide (Ac-Y[Cit][Cha][dP][dY]R-NH2; SMILES CC(=O)N[C@@H](Cc1ccc(O)cc1)C(=O)N[C@@H](CCCNC(N)=O)C(=O)N[C@@H](CC1CCCCC1)C(=O)N1CCC[C@@H]1C(=O)N[C@H](Cc1ccc(O)cc1)C(=O)N[C@@H](CCCNC(=N)N)C(N)=O) [Example 6]
[2]
  inhibition of the amidase activity of the thrombin: 55%
